From the supplement of paper PMC9170038

system: MS2 coat protein; assay: apparent KD of MS2 coat protein, switch ON state; designed switch direction (-1 OFF switch, 1 ON switch): -1; higher = weaker reporter binding; conditions: FMN input: 0 or 200 uM; Eterna round: R93 (includes R88 designs)
How it was run: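 Designed RNA switches were made by on-chip transcription from Illumina sequencing clusters and then titrated with SNAP-549-labelled MS2 coat protein. Twofold steps ran from 0.7 or 1.5 nM to 3 µM, each lasting 0.8–1.5 h early and 10–20 min late, in 100 mM Tris-HCl pH 7.5, 80 mM KCl, 4 mM MgCl2, without or with constant ligand. Apparent KD is the per-design median of normalised cluster binding-curve fits.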

Sequence	apparent KD of MS2 coat protein
AACAGUACAGGAUAUACAUGAGGAUCACCCAUGUGAAAAUUAAGUGGGAAACCACAGUGUAGAAGGGUACUGAA [Mat - Exclusion 3 - Eli mod - D55]	120 nM
AGAAAGCGAGGAUAUGCACGGGAAGAAAGAAGAGAGAAAAAACAUGAGGAUCACCCAUGUAGAAGGUGUAUAAA [JR_Exc002_Sub1713]	38.4 nM
AAAGAUACAGGAUAUACAUGAGGAUCACCCAUGUGGAACCAAAAAUGGGAAAAAGAAAGUAGAAGGGUAUAAAA [Ex 3 May 37]	38.8 nM
AGGAAACAUGAGGAUCACCCAUGUUAGGAUAUGAACGAAAAUAAAUAAAAAUAAAAGUUCAGAAGGGACAAAAA [66%, Wbt, 19]	38.4 nM
AAAAAACAUGAGGAUCACCCAUGUCAGGAUAUGCGAAGCAAAAAAAAAAAAAAGCGAAGUAGAAGGGACUAAAA [Exclusion1 Malc#6]	24.4 nM
ACUUGACAUGAGGAUCACCCAUGUCAGGAUAUAGUAGGACAAAUAAAUAAAAGUUCUACUAGAAGGGAUAUGGG [Design 20: G-U+ 4]	20.7 nM
UAGAACCUAGGAUAUACUUGGGAAACUAAUGCAAAGAUAUAACAUGAGGAUCACCCAUGUAGAAGGAGGAGUAA [JR_Exc002_Sub019]	84.5 nM
GGUUGGCGAGGAUAUACAUGAGGAUCACCCAUGUGAGAGAAAAAAGUGAGUAAGAAAAGUAGAAGGCGCUGACG [salish99-ex3-33]	49.9 nM
AAAAAGCGAGGAUAUACUAAAAAACCUCAAAAAAAAAAAAAACAUGAGGAUCACCCAUGUAGAAGGCGCAAAAA [JR_Exc002_Sub001]	86.1 nM
AAACCACAUGAGGAUCACCCAUGUUAGGAUAUGAACGAAAAUAAAUAAAAAUAAAAGUUCAGAAGGGACAAAAA [66%, Wbt, 21]	21.5 nM
AAAGACAGAGGAUAUACAUGAGGAUCACCCAUGUGGCGAAAAAAAAUCCAUUUGGCAUGUAGAAGGCUGUAUGA [Orerzadi]	66.9 nM
AAAAAACAUGAGGAUCACCCAUGUGAGGAUAUCCAGAAGGGAAUAAAAUAACUCGAAAGGAGAAGGCGCAAAAA [Ex 1 May 34]	31.8 nM
AACUAGUCAGGAUAUGCGAACAGAUAAUAAGCUACACAAAAGCAGAAGGGACAUGAGGAUCACCCAUGUAAAUA [JR_Exc004_Sub502]	39.3 nM
GCUGGCGAAGGAUAUACAUGAGGAUCACCCAUGUGAGAGAAAAAAGUGAGAAAGAAAAGUAGAAGGUCGUUAGG [salish99-ex3-96]	31.7 nM
AAAAAACAUGAGGAUCACCCAUGUGAGGAUAUGCGAAAAUAAAAUAAAAUAAUAAAAAGCAGAAGGCACAAAAA [58%, Sh'dynasty, 1]	67.7 nM
AAGAAGUGAGGAUAUACAUGAGGAUCACCCAUGUAAAAGAAAGAGGGAAAAGAGAAAAGUAGAAGGCACAAGAA [Weserkare-meryamun Ptolemy II Philadelphos]	35.6 nM
UAUAGACAUGAGGAUCACCCAUGUGAGGAUAUCAGUGACUACAGGACAUCACGUACAAUGAGAAGGCACAGAAA [JR_Exc001_Sub015]	34.7 nM
AAAAAACAUGAGGAUCACCCAUGUCAGGAUAUGCUCAGCAAUAUUCCAAUAAAGAACGGUAGAAGGGACAGGAA [Bilbo Confounded 24 - Jieux - Exclusion 1]	24.9 nM
AACGUACAUGAGGAUCACCCAUGUUAGGAUAUAUAUACAGGAAAACAUUCUAAUGUAAAUAGAAGGAACGAAAA [Bilbo Confounded 21 - Jieux - Exclusion 1]	17.1 nM
AAAAAACAUGAGGAUCACCCAUGUAAGGAUAUGUAAAAUAAAAGAAAAAUAAAGAAAAGCAGAAGGUACAUGAA [JL wbt mod 14]	37 nM
AAGAACGUAGGAUAUACAUGAGGAUCACCCAUGUAAAAGAAAGAAGGGAAAGAGAAAAGUAGAAGGACGAAGAA [Wahkare Bakenrenef]	21.6 nM
AAAAAGUGAGGAUAUACGCUGUGGAGUAGACACAACCAGGCGUAGAAGGCACAUGAGGAUCACCCAUGUCCAAA [EX4 Malc#18]	23.9 nM

Sequence	apparent KD of MS2 coat protein
UAAAAACAUGAGGAUCACCCAUGUCAGGAUAUGUGCUUAAUAAAAAAAUAAAUAACAAGCAGAAGGGACAAUAA [JR_Exc001_Sub201]	35 nM
AAAAAGCUAGGAUAUACAUGAGGAUCACCCAUGUAAAAAAAAAAAAAGGGAAAAAAAAGUAGAAGGAGCAAAAA [Merankhre Mentuhotep VI]	18.4 nM
AUCAUGUUAGGAUAUUAAAGAAAAGAAAAGAAAGAAAAGAAUAAGAAGGAACAUGAGGAUCACCCAUGUAAGAA [EteRNA is fun!]	30.4 nM
CUCAAGUGAGGAUAUUAAAGAAAAGAAGAGAAAGAAAAGAAUAAGAAGGCACAUGAGGAUCACCCAUGUAAGAA [EteRNA is fun!]	26.4 nM
GCUUGGCAAGGAUAUACAUGAGGAUCACCCAUGUGAGAGAAAAAAGUGAGAAAGAAAAGUAGAAGGUGCUGAGG [salish99-ex3-109]	42.6 nM
CGCUAGUCAGGAUAUACGAACAUGUCAAAAGACGUGAAAAAACAUGAGGAUCACCCAUGUAGAAGGGACUAGCG [Mat - Exclusion 2 - JL mod - D17]	16.2 nM
AAAAGACAUGAGGAUCACCCAUGUGAGGAUAUCGGAAAAGGAAAAAUAAAAAAGAAGACGAGAAGGCACACCAA [Mat - Exclusion 1 - Eli mod - D75]	43.9 nM
AGCUAGUCAGGAUAUACGAACAUGUCAAAAGACGUGAGAGAACAUGAGGAUCACCCAUGUAGAAGGGACUAGCA [Mat - Exclusion 2 - JL-Eli mod - D47]	18.7 nM
AAAAUACAUGAGGAUCACCCAUGUGAGGAUAUGCAAAACCCAUAUAAAAAGGGAAAAAGCAGAAGGCACAAAAA [wbt round 1 mod 15]	33 nM
CUCAUGUUAGGAUAUUAAUGAAAUGAAGUGAAAGAAAAGAAUAAGAAGGAACAUGAGGAUCACCCAUGUUAGAA [EteRNA is fun!]	69.3 nM
AACAUGUCAGGAUAUUAAAGAAAAGAAAAGAAAGAAAAGAAUAAGAAGGGACAUGAGGAUCACCCAUGUAAGAA [EteRNA is fun!]	72.1 nM
AAAAGACAUGAGGAUCACCCAUGUCAGGAUAUGACUUGAAAAAUAAAAUAAAAACAUGUCAGAAGGGACAUGAA [Design 46: Sub-opt DB]	28.5 nM
AAAAAACAUGAGGAUCACCCAUGUAAGGAUAUGCUAAAAAACGCAAAAAAAGCGAAUAGCAGAAGGUACAAAAG [Mat - Exclusion 1 - Eli mod - D81]	36.4 nM
AACAGUACAGGAUAUACAUGAGGAUCACCCAUGUGAGUUUUAAAAGGCGUACCUAAAAGUAGAAGGGUACUGGA [JL Maslow Revisted mod 20]	24.3 nM
UCGAUGCGAGGAUAUACUAAGGCAACUACUGCAGCUCAAAAACAUGAGGAUCACCCAUGUAGAAGGCGCAUAUA [JR_Exc002_Sub304]	19.6 nM
AAAACGUGAGGAUAUGCACCAAAAAAGAAAAAACGGGUACGACAUGAGGAUCACCCAUGUAGAAGGCACGAAAA [Frodo Flailing 8 - Jieux - Exclusion 2]	35.3 nM
UAAAAUAAAGGAUAUAAAACAGAGGAUAUACAUAAAUAAAAACAUGAGGAUCACCCAUGUAGAAGGCUGAAAAU [Meechl Ex2 R2 m1]	29 nM
AAAAAACAUGAGGAUCACCCAUGUAAGGAUAUCUAAAAUAAAAGAAAAAUAAAGAAAAGGAGAAGGUAUAUGGA [JL wbt mod 24]	27.1 nM
CCUGUGUGAGGAUAUGGUAUAAAAAAAAAAAAAUAGCUCCUCCAGAAGGCACAUGAGGAUCACCCAUGUCGUGG [Jolly's Folly 17 - Jieux - Exclusion 4]	26.9 nM
AAAGAUGGAGGAUAUACAUGAGGAUCACCCAUGUGGAAAAAAAAUUGGGAAAAAGAAAGUAGAAGGCCAAAAAA [Ex 3 May 42]	48.1 nM
AAAAAGGCAGGAUAUACAUGAGGAUCACCCAUGUAAAAAAAAAAAAAAGGGAAAAAAAGUAGAAGGGCCAAAAA [Along]	31.1 nM
AAACAGGGAGGAUAUACACCAUACAAACCUCUAAACAAAAGACAUGAGGAUCACCCAUGUAGAAGGCCCAACAA [Default title]	57.5 nM
